Target: PFD1235w DBLβ3_D4, wild type (P. falciparum 3D7)
Test: SPR

ICAM-1_D1-D2 (domain or fragment) gave a Kd of 7.9 nM and a koff of 0.00167 s⁻¹.

Source: paper PMC4574524
